The text below walks through data of IntAct's records for PubMed 35512704.

The chains are these.
B1: Speckle-type POZ protein (Homo sapiens), O43791 (parent)
chain: MSRVPSPPPPAEMSSGPVAESWCYTQIKVVKFSYMWTINNFSFCREEMGEVIKSSTFSSGANDKLKWCLRVNPKGLDEESKDYLSLYLLLVSCPKSEVRAKFKFSILNAKGEETKAMESQRAYRFVQGKDWGFKKFIRRDFLLDEANGLLPDDKLTLFCEVSVVQDSVNISGQNTMNMVKVPECRLADELGGLWENSRFTDCCLCVAGQEFQAHKAILAARSPVFSAMFEHEMEESKKNRVEINDVEPEVFKEMMCFIYTGKAPNLDKMADDLLAAADKYALERLKVMCEDALCSNLSVENAAEILILADLHSADQLKTQAVDFINYHASDVLETSGWKSMVVSHPHLVAEAYRSLASAQCPFLGPPRKRLKQS
partner: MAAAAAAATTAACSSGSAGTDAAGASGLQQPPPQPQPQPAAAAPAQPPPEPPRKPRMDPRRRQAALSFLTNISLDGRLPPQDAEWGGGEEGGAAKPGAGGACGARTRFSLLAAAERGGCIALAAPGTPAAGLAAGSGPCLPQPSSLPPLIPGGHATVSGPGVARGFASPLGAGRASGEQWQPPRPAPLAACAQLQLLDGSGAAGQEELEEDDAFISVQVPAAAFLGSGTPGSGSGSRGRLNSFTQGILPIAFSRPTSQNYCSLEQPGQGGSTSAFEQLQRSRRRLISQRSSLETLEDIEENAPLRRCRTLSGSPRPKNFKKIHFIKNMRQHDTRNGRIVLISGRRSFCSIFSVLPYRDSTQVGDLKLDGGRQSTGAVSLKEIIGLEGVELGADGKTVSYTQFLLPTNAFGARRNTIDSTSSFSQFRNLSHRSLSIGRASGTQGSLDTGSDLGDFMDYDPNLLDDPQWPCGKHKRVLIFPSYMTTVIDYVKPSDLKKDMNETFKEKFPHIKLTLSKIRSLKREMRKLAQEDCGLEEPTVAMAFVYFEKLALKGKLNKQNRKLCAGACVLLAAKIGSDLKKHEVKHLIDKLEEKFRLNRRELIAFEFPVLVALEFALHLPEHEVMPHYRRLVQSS
B2: Speckle-type POZ protein (Homo sapiens), O43791 (parent)
chain: B1 chain
partner: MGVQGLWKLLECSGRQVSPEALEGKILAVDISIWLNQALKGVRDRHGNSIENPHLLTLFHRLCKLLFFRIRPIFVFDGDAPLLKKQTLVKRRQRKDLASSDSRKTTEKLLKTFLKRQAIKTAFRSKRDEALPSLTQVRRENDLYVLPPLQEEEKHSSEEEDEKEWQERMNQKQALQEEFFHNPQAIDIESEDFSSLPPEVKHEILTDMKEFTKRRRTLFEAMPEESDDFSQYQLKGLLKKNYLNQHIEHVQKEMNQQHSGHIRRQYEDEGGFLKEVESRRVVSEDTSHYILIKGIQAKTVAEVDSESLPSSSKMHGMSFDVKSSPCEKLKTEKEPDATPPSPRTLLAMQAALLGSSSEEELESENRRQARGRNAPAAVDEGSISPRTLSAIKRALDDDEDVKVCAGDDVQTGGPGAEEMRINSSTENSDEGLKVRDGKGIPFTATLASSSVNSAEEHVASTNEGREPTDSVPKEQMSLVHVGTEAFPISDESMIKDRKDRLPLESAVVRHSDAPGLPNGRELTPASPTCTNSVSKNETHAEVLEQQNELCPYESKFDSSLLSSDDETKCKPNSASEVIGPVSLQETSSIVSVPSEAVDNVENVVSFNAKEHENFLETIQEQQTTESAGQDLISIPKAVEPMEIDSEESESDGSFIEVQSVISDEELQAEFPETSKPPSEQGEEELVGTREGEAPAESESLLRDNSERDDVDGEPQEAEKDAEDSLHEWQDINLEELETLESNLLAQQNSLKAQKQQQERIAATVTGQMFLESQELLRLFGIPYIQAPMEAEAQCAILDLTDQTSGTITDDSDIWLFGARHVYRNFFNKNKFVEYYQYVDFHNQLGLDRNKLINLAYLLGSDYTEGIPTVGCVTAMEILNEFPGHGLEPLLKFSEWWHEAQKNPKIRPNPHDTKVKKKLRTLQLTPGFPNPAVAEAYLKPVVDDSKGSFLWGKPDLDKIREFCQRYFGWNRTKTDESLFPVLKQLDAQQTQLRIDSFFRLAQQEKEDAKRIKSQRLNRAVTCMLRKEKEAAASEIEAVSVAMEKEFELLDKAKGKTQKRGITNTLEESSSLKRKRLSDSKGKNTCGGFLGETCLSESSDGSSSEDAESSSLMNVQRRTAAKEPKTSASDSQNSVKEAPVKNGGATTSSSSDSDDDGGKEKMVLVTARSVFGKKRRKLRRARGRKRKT
B3: Speckle-type POZ protein (Homo sapiens), O43791 (parent)
chain: B1 chain
partner: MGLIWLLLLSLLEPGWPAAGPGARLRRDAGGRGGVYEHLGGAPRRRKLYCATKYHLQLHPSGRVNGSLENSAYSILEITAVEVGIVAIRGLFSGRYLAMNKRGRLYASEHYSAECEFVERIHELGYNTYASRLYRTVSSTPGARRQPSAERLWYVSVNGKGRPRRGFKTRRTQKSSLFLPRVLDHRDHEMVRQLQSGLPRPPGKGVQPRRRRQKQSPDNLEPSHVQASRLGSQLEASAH
B4: Speckle-type POZ protein (Homo sapiens), O43791 (parent)
chain: B1 chain
partner: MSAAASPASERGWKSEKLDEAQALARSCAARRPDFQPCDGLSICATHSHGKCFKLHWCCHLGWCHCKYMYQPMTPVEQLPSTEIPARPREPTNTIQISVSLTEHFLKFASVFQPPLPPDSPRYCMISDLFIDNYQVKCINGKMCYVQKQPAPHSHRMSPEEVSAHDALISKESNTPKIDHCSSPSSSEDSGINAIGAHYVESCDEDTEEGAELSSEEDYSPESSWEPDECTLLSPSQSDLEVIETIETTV
B5: Speckle-type POZ protein (Homo sapiens), O43791 (parent)
chain: B1 chain
partner: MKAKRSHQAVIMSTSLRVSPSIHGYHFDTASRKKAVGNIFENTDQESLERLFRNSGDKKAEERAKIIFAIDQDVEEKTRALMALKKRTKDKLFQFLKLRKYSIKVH
B6: Speckle-type POZ protein (Homo sapiens), O43791 (parent)
chain: B1 chain
partner: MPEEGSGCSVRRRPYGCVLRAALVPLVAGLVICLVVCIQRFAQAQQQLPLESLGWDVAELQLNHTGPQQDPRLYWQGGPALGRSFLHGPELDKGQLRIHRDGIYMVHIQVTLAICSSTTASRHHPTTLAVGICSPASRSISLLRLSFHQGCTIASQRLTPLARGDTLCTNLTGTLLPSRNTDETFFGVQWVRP
B7: Speckle-type POZ protein (Homo sapiens), O43791 (parent)
chain: B1 chain
partner: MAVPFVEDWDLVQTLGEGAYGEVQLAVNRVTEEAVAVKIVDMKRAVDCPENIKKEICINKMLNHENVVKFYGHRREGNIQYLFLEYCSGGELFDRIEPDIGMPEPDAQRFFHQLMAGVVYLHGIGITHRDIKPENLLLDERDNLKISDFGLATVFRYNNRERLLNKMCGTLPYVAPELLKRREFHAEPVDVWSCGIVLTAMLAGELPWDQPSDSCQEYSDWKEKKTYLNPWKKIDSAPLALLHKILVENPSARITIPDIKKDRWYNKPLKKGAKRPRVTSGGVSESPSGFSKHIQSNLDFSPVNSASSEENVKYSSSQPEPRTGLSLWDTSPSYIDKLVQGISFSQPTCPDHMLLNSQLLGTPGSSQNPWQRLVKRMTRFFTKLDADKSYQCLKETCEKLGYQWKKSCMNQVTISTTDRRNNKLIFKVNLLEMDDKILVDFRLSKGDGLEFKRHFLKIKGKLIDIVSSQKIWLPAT

Variants of B1 are the subject of the first assay. The following applies: with cabl1_human CABLES1, Q8TDN4.
Consider F133V, for which the “effect of a mutation on the interaction” value was “with no effect”.

Another assay covers variants of B1. The following applies: with cabl1_human CABLES1, Q8TDN4. This is another data set of the same source.
As for F133L, the “effect of a mutation on the interaction” value is listed as “with no effect”.

A further assay covers variants of B2. The following applies: with ercc5_human ERCC5, P28715.
Turning to F102C, the “effect of a mutation on the interaction” value was “with no effect”.

In a further assay the parent is B2. The conditions noted are these: with ercc5_human ERCC5, P28715. The source holds these as a separate data set.
Consider Y87C, for which the “effect of a mutation on the interaction” value is given as “with no effect”.

In a further assay the parent is B2. The conditions noted are these: with ercc5_human ERCC5, P28715. This is another data set of the same source.
On to F133L, for which the “effect of a mutation on the interaction” value was “with no effect”.

The variants in a further assay derive from B2. The conditions noted are these: with ercc5_human ERCC5, P28715. This is another data set of the same source.
Consider F133V, for which the “effect of a mutation on the interaction” value is given as “with no effect”.

Variants of B3 are the subject of a further assay. The following applies: with fgf3_human FGF3, P11487.
As to Y87C, the “effect of a mutation on the interaction” value is “with no effect”.

The next assay covers variants of B3. The following applies: with fgf3_human FGF3, P11487. This is another data set of the same source.
As for F102C, the “effect of a mutation on the interaction” value is “with no effect”.

Variants of B3 are the subject of a further assay. The conditions noted are these: with fgf3_human FGF3, P11487. This is another data set of the same source.
Consider F133L, for which the “effect of a mutation on the interaction” value is given as “with no effect”.

In the next assay the parent is B3. The conditions noted are these: with fgf3_human FGF3, P11487. The source holds these as a separate data set.
Turning to F133V, the “effect of a mutation on the interaction” value is “with no effect”.

A further assay covers variants of B4. The conditions noted are these: with cc070_human C3orf70, A6NLC5.
In the case of Y87C, the “effect of a mutation on the interaction” value is “with no effect”.

The variants in the next assay derive from B4. The conditions noted are these: with cc070_human C3orf70, A6NLC5. The source holds these as a separate data set.
As for F133V, the “effect of a mutation on the interaction” value is “with no effect”.

Variants of B5 are the subject of a further assay. The following applies: with tcim_human TCIM.
In the case of Y87C, the “effect of a mutation on the interaction” value is given as “with no effect”.

In the next assay the parent is B5. The conditions noted are these: with tcim_human TCIM. The source holds these as a separate data set.
As for F102C, the “effect of a mutation on the interaction” value is “with no effect”.

The next assay covers variants of B5. The following applies: with tcim_human TCIM. This is another data set of the same source.
With F133V, the “effect of a mutation on the interaction” value is “with no effect”.

The variants in another assay derive from B5. The conditions noted are these: with tcim_human TCIM. The source holds these as a separate data set.
In the case of F133L, the “effect of a mutation on the interaction” value is reported as “with no effect”.

A further assay covers variants of B6. The following applies: with cd70_human CD70, P32970.
On to F133V, for which the “effect of a mutation on the interaction” value is recorded as “with no effect”.

In a further assay the parent is B6. The following applies: with cd70_human CD70, P32970. The source holds these as a separate data set.
Turning to F133L, the “effect of a mutation on the interaction” value is “with no effect”.

In the next assay the parent is B6. The following applies: with cd70_human CD70, P32970. The source holds these as a separate data set.
Take F102C: the “effect of a mutation on the interaction” value is listed as “with no effect”.

Variants of B6 are the subject of the next assay. The conditions noted are these: with cd70_human CD70, P32970. This is another data set of the same source.
Y87C: the “effect of a mutation on the interaction” value was “with no effect”.

Another assay covers variants of B7. The conditions noted are these: with chk1_human CHEK1, O14757.
Take F102C: the “effect of a mutation on the interaction” value is “with no effect”.

Variants of B7 are the subject of another assay. The conditions noted are these: with chk1_human CHEK1, O14757. The source holds these as a separate data set.
With F133L, the “effect of a mutation on the interaction” value is listed as “with no effect”.

The variants in another assay derive from B7. The conditions noted are these: with chk1_human CHEK1, O14757. The source holds these as a separate data set.
For F133V, the “effect of a mutation on the interaction” value is given as “with no effect”.

The next assay covers variants of B7. The conditions noted are these: with chk1_human CHEK1, O14757. The source holds these as a separate data set.
For Y87C, the “effect of a mutation on the interaction” value is reported as “with no effect”.
